This note sets out measurements from paper PMC12097012, “Direct Quantification of Protein–Protein Interactions in Living Bacterial Cells” (Advanced Science, 2025).

Ends that are not written are not given here.

One experiment concerns the target T1, ^CDD_(ElaJ).
T1 chain: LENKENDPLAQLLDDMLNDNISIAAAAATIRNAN
Description: FRET or BRET; KD-FRET: sensitized-emission (three-channel) FRET microscopy of single living E. coli BW25993 cells (UvrA/UvrB: uvrA uvrB double deletion strain), donor eGFPd fusion from pFF838, acceptor mRFP fusion from pBBR6k, M9 medium, 37 °C; corrections to step 6; FRET efficiency against binned acceptor concentration fitted to a quadratic binding equation. As to conditions: partners not purified. A general note: Bioluminescence resonance energy transfer reports proximity on the nanometre scale.

The target of another experiment is T2, UvrA-eGFPd (E. coli, UniProt P0A698 1-940).
T2 construct: UvrA, nucleotide excision repair protein of E. coli; source: E. coli BW25993 with double deletion of uvrA and uvrB (SY006), expressed from the donor vector, in living cells; not shown: eGFPd, C-terminal, kept
T2 sequence (looked up): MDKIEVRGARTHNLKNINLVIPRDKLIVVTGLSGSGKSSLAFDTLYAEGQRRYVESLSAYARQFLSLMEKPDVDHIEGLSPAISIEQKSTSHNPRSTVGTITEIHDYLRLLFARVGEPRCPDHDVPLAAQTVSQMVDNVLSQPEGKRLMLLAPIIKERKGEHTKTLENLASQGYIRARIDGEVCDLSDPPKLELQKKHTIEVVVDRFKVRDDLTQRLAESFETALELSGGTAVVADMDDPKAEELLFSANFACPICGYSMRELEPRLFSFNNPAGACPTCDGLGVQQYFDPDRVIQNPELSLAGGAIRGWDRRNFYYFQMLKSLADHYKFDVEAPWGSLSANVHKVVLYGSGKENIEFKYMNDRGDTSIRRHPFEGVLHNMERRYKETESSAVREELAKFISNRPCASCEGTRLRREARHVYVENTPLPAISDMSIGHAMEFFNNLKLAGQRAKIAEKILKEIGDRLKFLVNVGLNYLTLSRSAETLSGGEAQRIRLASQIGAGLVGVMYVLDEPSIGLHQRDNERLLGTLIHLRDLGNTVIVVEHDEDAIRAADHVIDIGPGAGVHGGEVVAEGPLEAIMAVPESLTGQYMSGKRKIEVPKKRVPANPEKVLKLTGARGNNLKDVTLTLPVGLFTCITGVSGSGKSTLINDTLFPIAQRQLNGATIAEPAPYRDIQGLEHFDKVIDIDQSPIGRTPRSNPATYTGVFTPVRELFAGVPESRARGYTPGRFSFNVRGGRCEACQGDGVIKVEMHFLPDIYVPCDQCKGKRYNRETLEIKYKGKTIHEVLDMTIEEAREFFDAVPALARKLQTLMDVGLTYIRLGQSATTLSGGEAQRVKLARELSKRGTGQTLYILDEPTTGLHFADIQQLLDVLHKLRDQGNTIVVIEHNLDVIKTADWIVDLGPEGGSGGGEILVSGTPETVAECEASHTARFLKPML
Described as above. The following applies: partners not purified.

The target of experiment [1] is T3, ^CDD_(MlnD) labeled with eGFPd.
T3 chain: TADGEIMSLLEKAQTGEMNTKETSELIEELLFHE
Described as above. The following applies: partners not purified.

Experiment [2] shares this target. Description: FRET or BRET; in vitro FRET with purified fusion proteins in PBS, plate reader, 37 °C; donor protein fixed at 1 × 10^-6 M, acceptor protein 0 to 20 × 10^-6 M. The following applies: both partners purified.
Experiment [3] addresses T4, eGFPd-^CDD_(MlnB).
T4 chain: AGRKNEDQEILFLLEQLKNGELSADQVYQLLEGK
Description: FRET or BRET; KD-FRET: sensitized-emission (three-channel) FRET microscopy of single living E. coli BW25993 cells (UvrA/UvrB: uvrA uvrB double deletion strain), donor eGFPd fusion from pFF838, acceptor mRFP fusion from pBBR6k, M9 medium, 37 °C; corrections to step 6; FRET efficiency against binned acceptor concentration fitted to a quadratic binding equation. As to conditions: partners not purified.

Experiment [4] addresses T4, eGFPd-^CDD_(MlnB). Description: FRET or BRET; in vitro FRET with purified fusion proteins in PBS, plate reader, 37 °C; donor protein fixed at 1 × 10^-6 M, acceptor protein 0 to 20 × 10^-6 M. As to conditions: both partners purified.
Experiment [5] concerns the target T4, eGFPd-^CDD_(MlnB). Description: ITC; cell: 80 × 10^-6 M eGFPd-CDD_MlnB; syringe: 1.6 × 10^-3 M NDD_MlnC-mRFP, 20 injections of 2 µL; 20 mM Tris-HCl pH 7.9, 250 mM NaCl, 1 mM EDTA, 10% glycerol, 1 mM TCEP; 37 °C; single binding site model. As to conditions: both partners purified. On the technique in general: Isothermal titration calorimetry measures the heat released or taken up as one component is titrated into another.

Broadly, the Kd is the free concentration of one partner at which half of the binding sites on the other are occupied at equilibrium, for simple one-to-one binding. Regarding MKDYIEHILEEIKHNRLSKQEGLEQIRQFRSKGNV (domain or fragment, not fully specified) [^NDD_(ElaK)], in the experiment with ^CDD_(ElaJ), the Kd was 1180 nM.

B1: UvrB-mRFP (natural protein, E. coli, UniProt P0A8F8 1-673, looked up)
chain: MSKPFKLNSAFKPSGDQPEAIRRLEEGLEDGLAHQTLLGVTGSGKTFTIANVIADLQRPTMVLAPNKTLAAQLYGEMKEFFPENAVEYFVSYYDYYQPEAYVPSSDTFIEKDASVNEHIEQMRLSATKAMLERRDVVVVASVSAIYGLGDPDLYLKMMLHLTVGMIIDQRAILRRLAELQYARNDQAFQRGTFRVRGEVIDIFPAESDDIALRVELFDEEVERLSLFDPLTGQIVSTIPRFTIYPKTHYVTPRERIVQAMEEIKEELAARRKVLLENNKLLEEQRLTQRTQFDLEMMNELGYCSGIENYSRFLSGRGPGEPPPTLFDYLPADGLLVVDESHVTIPQIGGMYRGDRARKETLVEYGFRLPSALDNRPLKFEEFEALAPQTIYVSATPGNYELEKSGGDVVDQVVRPTGLLDPIIEVRPVATQVDDLLSEIRQRAAINERVLVTTLTKRMAEDLTEYLEEHGERVRYLHSDIDTVERMEIIRDLRLGEFDVLVGINLLREGLDMPEVSLVAILDADKEGFLRSERSLIQTIGRAARNVNGKAILYGDKITPSMAKAIGETERRREKQQKYNEEHGITPQGLNKKVVDILALGQNIAKTKAKGRGKSRPIVEPDNVPMDMSPKALQQKIHELEGLMMQHAQNLEFEEAAQIRDQLHQLRELFIAAS
notes: UvrB, nucleotide excision repair protein of E. coli; source: E. coli BW25993 with double deletion of uvrA and uvrB (SY006), expressed from the acceptor vector, in living cells; not shown: mRFP, C-terminal, kept
B1: the Kd in the experiment with UvrA-eGFPd was determined as 170 nM.
Consider MNEKTMQIEQIVKKVKECSLTPEEGLELIKSLGKT (domain or fragment, also: labeled with mRFP) [^NDD_(MlnE) labeled with mRFP], for which the dissociation constant (Kd) amounted to 250 nM in experiment [1] and 1500 nM in experiment [2].
In the case of MQIKQILSLIEEQQMSPDAGLELIRTYRKEQMEKK (domain or fragment, also: fused to mRFP) [^NDD_(MlnC)-mRFP], the dissociation constant (Kd) with eGFPd-^CDD_(MlnB) [3] stood at 2290 nM; in the experiment with eGFPd-^CDD_(MlnB) [4], 5660 nM; with eGFPd-^CDD_(MlnB) [5] it was 6850 nM.
